Results reported in patent US20210324359A1, “USE OF GRAM-NEGATIVE LYSIN-ANTIMICROBIAL PEPTIDE (AMP) POLYPEPTIDE CONSTRUCTS IN TREATING ENDOCARDITIS” (priority 2020, published 2021).

Tests used:
[1] = test system: carbepenam-resistant clinical isolate WC-453; experiment: MIC in CAA without or with 25% human serum (Table 5); format: cell-based, Pseudomonas aeruginosa; details: for CAA/HuS MIC: CAA supplemented with 25% human serum
Description: MIC values were determined using a modification of the standard broth microdilution reference method defined by the Clinical and Laboratory Standards Institute (CLSI), CLSI. […] Methods for Dilution Antimicrobial Susceptibility Tests for Bacteria That Grow Aerobically; Approved Standard-10th Edition. Clinical and Laboratory Standards Institute, Wayne, Pa.

[2] = test system: P. aeruginosa strain WC-453; experiment: Time-kill assay in HEPES or CAA with 25% human serum (Tables 7, 8); format: cell-based, Pseudomonas aeruginosa; details: lysin 10 μg/ml, WC-453; for HEPES (Log10 CFU/mL), 1 hr / HEPES (Log10 CFU/mL), 3 hr: 25 mM HEPES pH 7.4
Description: Exponential phase bacteria were then pelleted and resuspended in 1/5 culture volume of 25 mM HEPES, pH 7.4 before a final adjustment to an optical density corresponding to a McFarland value of 0.5. […] All treatments were incubated at 37° C. with aeration. At time points before the addition of lysin (or buffer control) and at 1 hour and 3 hours intervals thereafter, culture samples were removed for quantitative plating on CAA agar plates.

[3] = Isoelectric point (pI) of the polypeptides; format: physicochemical
Description: By comparing the sequences and components of the various polypeptides, the effect of a particular structural modification on isoelectric point (a higher pI favors outer membrane penetration) and activity (as assessed by MIC) can be determined.

| Molecule | activity in CAA supplemented with human serum (25%) [1] | CAA MIC [1] | CAA/HuS MIC [1] | HEPES (Log10 CFU/mL), 1 hr ([2]; 1 hr) [Log10 CFU/mL] | HEPES (Log10 CFU/mL), 3 hr ([2]; 3 hr) [Log10 CFU/mL] | CAA/HuS (Log10 CFU/mL), 1 hr ([2]; CAA + 25% human serum, 1 hr) [Log10 CFU/mL] | CAA/HuS (Log10 CFU/mL), 3 hr ([2]; CAA + 25% human serum, 3 hr) [Log10 CFU/mL] | pI (isoelectric point) [3] |
| --- | --- | --- | --- | --- | --- | --- | --- | --- |
| GN7: lysin obtained from a marine metagenome (SEQ ID NO: 206) (protein, GOS_4958713 hypothetical protein GOS_4958713, partial [marine metagenome]) MTPFDHALELTLGLEGGYSNHLMDRGGETMCGITEAVARRHGWEGEMRDLPIEMVRHIYKVDYWDPLMGDYLGEHNPELAEELFDTAVNCGVGFASKILQKSINVLNRNRTEDIAEDGQIGPQTLKALRDLARRDYDYLLECCKILQGNHYISLAHRDPTQRIFIRGWLTRV | active | >128 | 128 | 7.5 | 6.2 | 7.0 | 7.0 | 5.6 |
| GN11: lysin obtained from Pseudomonas putida KT2440 (SEQ ID NO: 208) (protein, listed as Pseudomonas putida) MTYNAGTKPRAETDYLVVHCSATRPSQDIGAADINRWHRAKGWRCIGYHFVIRRNGVVEEGRELDQIGAHVEGHNINSVGICMAGGVTEADINVPENNFTPEQFASLKHLLGELKEKYPSATIQGHRDFPKVAKACPSFDVKPWVAANL | active | 32 | 128 | 6.7 | <3.7 | – | – | 7.3 |
